Test results: the supplement of paper PMC9112550, “Optimization of the antimicrobial peptide Bac7 by deep mutational scanning” (BMC Biology, 2022)

Test system: Escherichia coli TOP10
Test: shrunken log2 fold change of peptide-encoding DNA abundance (4.5 h post-induction vs induction); higher = less antimicrobial activity (less host growth inhibition)
Conditions: time post-induction: 4.5 h; library: site-saturation at positions 5, 18, 19, 20
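Further: peptides expressed intracellularly from a pBAD plasmid library in pooled LB shake-flask culture, induced with 0.3% L-arabinose, DNA abundance read by NGS, three biological replicates, DESeq2 with apeglm shrinkage.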

| Sequence | shrunken log2 fold change |
| --- | --- |
| RRIRPRPPRLPRPRPRPHWDPRP | -0.208 |
| RRIRCRPPRLPRPRPRPSSMPRP | -0.859 |
| RRIRRRPPRLPRPRPRPALDPRP | 0.586 |
| RRIRGRPPRLPRPRPRPPKCPRP | 1.63 |
| RRIRHRPPRLPRPRPRPGLAPRP | 0.366 |
| RRIRLRPPRLPRPRPRPQILPRP | -0.172 |
| RRIRVRPPRLPRPRPRPKHWPRP | 0.151 |
| RRIRCRPPRLPRPRPRPGLKPRP | -0.113 |
| RRIRDRPPRLPRPRPRPIEFPRP | 0.144 |
| RRIRWRPPRLPRPRPRPDSIPRP | -0.243 |
| RRIRHRPPRLPRPRPRPIVEPRP | -0.133 |
| RRIRARPPRLPRPRPRPLQSPRP | 0.625 |
| RRIRHRPPRLPRPRPRPFCPPRP | -0.772 |
| RRIRGRPPRLPRPRPRPGGNPRP | 0.0695 |
| RRIRSRPPRLPRPRPRPTNGPRP | 0.0899 |
| RRIRNRPPRLPRPRPRPVAKPRP | -0.107 |
| RRIRGRPPRLPRPRPRPPTHPRP | 0.617 |
| RRIRGRPPRLPRPRPRPAFWPRP | 0.71 |
| RRIRNRPPRLPRPRPRPHPGPRP | -0.0788 |
| RRIRVRPPRLPRPRPRPSYGPRP | -0.369 |
| RRIRVRPPRLPRPRPRPWGPPRP | -0.164 |
| RRIRIRPPRLPRPRPRPRPYPRP | -0.332 |
| RRIRKRPPRLPRPRPRPMLLPRP | -0.0797 |
| RRIRVRPPRLPRPRPRPWIDPRP | -0.134 |
| RRIRARPPRLPRPRPRPRALPRP | 0.482 |

| Sequence | shrunken log2 fold change |
| --- | --- |
| RRIRMRPPRLPRPRPRPVLIPRP | -0.0938 |
| RRIRVRPPRLPRPRPRPRADPRP | 0.43 |
| RRIRCRPPRLPRPRPRPKPSPRP | 0.136 |
| RRIRGRPPRLPRPRPRPANHPRP | 0.0248 |
| RRIRHRPPRLPRPRPRPIMAPRP | -0.383 |
| RRIRMRPPRLPRPRPRPIMEPRP | -0.00133 |
| RRIRRRPPRLPRPRPRPAANPRP | 3 |
| RRIRIRPPRLPRPRPRPMEHPRP | -0.199 |
| RRIRVRPPRLPRPRPRPDVNPRP | -0.172 |
| RRIRQRPPRLPRPRPRPRLVPRP | 0.211 |
| RRIRERPPRLPRPRPRPQWDPRP | 0.0698 |
| RRIRCRPPRLPRPRPRPFKRPRP | -0.219 |
| RRIRARPPRLPRPRPRPEVSPRP | 0.431 |
| RRIRLRPPRLPRPRPRPMEMPRP | -0.0251 |
| RRIRTRPPRLPRPRPRPVSTPRP | 0.137 |
| RRIRCRPPRLPRPRPRPAAWPRP | 0.252 |
| RRIRNRPPRLPRPRPRPGPWPRP | 0.0802 |
| RRIRVRPPRLPRPRPRPNIPPRP | -0.463 |
| RRIRQRPPRLPRPRPRPMRSPRP | 0.196 |
| RRIRDRPPRLPRPRPRPTMCPRP | -0.107 |
| RRIRDRPPRLPRPRPRPKMPPRP | -0.0144 |
| RRIRLRPPRLPRPRPRPGAMPRP | 0.34 |
| RRIRGRPPRLPRPRPRPRHSPRP | 0.242 |
| RRIRDRPPRLPRPRPRPTYTPRP | 0.319 |
| RRIRFRPPRLPRPRPRPWRRPRP | 0.0103 |

| Sequence | shrunken log2 fold change |
| --- | --- |
| RRIRPRPPRLPRPRPRPWCGPRP | 0.0629 |
| RRIRIRPPRLPRPRPRPLLQPRP | -0.163 |
| RRIRDRPPRLPRPRPRPTEAPRP | 0.405 |
| RRIRQRPPRLPRPRPRPNCMPRP | 0.188 |
| RRIRHRPPRLPRPRPRPGNSPRP | 0.0912 |
| RRIRDRPPRLPRPRPRPMGFPRP | 0.258 |
| RRIRNRPPRLPRPRPRPKCTPRP | 0.119 |
| RRIRTRPPRLPRPRPRPVCSPRP | -0.247 |
| RRIRRRPPRLPRPRPRPVSYPRP | 0.241 |
| RRIRTRPPRLPRPRPRPNVQPRP | -0.429 |
| RRIRTRPPRLPRPRPRPQIQPRP | -0.418 |
| RRIRLRPPRLPRPRPRPYPSPRP | 0.085 |
| RRIRDRPPRLPRPRPRPKEQPRP | 0.0816 |
| RRIRMRPPRLPRPRPRPIDYPRP | -0.0477 |
| RRIRFRPPRLPRPRPRPMYMPRP | -0.183 |
| RRIRFRPPRLPRPRPRPGMHPRP | -0.24 |
| RRIRGRPPRLPRPRPRPELMPRP | 0.853 |
| RRIRARPPRLPRPRPRPMGVPRP | 0.103 |
| RRIRERPPRLPRPRPRPASNPRP | -0.257 |
| RRIRERPPRLPRPRPRPLGFPRP | -0.118 |
| RRIRDRPPRLPRPRPRPWAFPRP | -0.01 |
| RRIRMRPPRLPRPRPRPSKSPRP | 0.166 |
| RRIRDRPPRLPRPRPRPCWIPRP | -0.255 |
| RRIRTRPPRLPRPRPRPGGLPRP | -0.0407 |
| RRIRYRPPRLPRPRPRPTYTPRP | -0.802 |
